Measurements published in the supplement of paper PMC6757056.
± gives the standard deviation of the averaged measurements.

B1: library; a variant is named by its letters at N, in order (parent)
chain: GCUGUCACCGGUGCUUGGUACGUUAUAUUCAGCCGGUCUGAUGAGUCUNNNNNNAGACGAAACAGC

Key:
[1] = variants of: B1; test: FACS-Seq fitted mean relative fluorescence mCherry/BFP without ligand (log10 relative fluorescence); HEK293T overexpressing SLC46A1; higher = higher reporter protein expression; settings: without (6R,S)-folinic acid; ligand present: no
In short: (§1)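 Sorting into 6 bins by mCherry/BFP followed 48 h of incubation with or without ligand. The cells were enriched HEK293T libraries lentivirally bearing an mCherry reporter with the ribozyme switch and an EF1α-BFP marker, and bin genomic DNA was PCR-amplified, barcoded and sequenced on MiSeq. Fluorescence is the fitted normal mean of the bin counts. Means were fitted on log10(mCherry/BFP), scaled to five spiked-in control ribozymes.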

[2] = variants of: B1; test: normalized RNA/DNA level without ligand (relative to sTRSVctl = 100) (log10 (% of sTRSVctl)); HEK293T overexpressing SLC46A1; higher = less ribozyme self-cleavage, higher mRNA level; settings: without (6R,S)-folinic acid; ligand present: no
In short: (§2)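 HEK293T cells received ligand, where used, 1 h before being transfected with 4 µg per 6-well well of library plasmids encoding reporter-linked ribozyme switches. After 72 h, RNA was extracted with EDTA and sequenced. RNA level was derived from RNA reads per DNA read, normalized to a spiked-in non-cleaving sequence or the top sequences, then scaled and log-transformed. Values were ×100 then log10, the top set was 25 sequences, and the minimum was 100 DNA reads.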

[3] = variants of: B1; test: FACS-Seq fitted mean relative fluorescence mCherry/BFP with ligand (log10 relative fluorescence); HEK293T overexpressing SLC46A1; ligand concentration (+) FACS-Seq: 6 mM; higher = higher reporter protein expression; settings: with (6R,S)-folinic acid; ligand present: yes
In short: as §1

[4] = variants of: B1; test: normalized RNA/DNA level with ligand (relative to sTRSVctl = 100) (log10 (% of sTRSVctl)); HEK293T overexpressing SLC46A1; ligand concentration (+) RNA-Seq: 6 mM; higher = less ribozyme self-cleavage, higher mRNA level; settings: with (6R,S)-folinic acid; ligand present: yes
In short: as §2

Variant	FACS-Seq fitted mean (log10) [1]	normalized RNA/DNA level without ligand (log10) [2]	FACS-Seq fitted mean (log10) [3]	normalized RNA/DNA level with ligand (log10) [4]
CUAUAG	0.0808 ± 0.1	1.915 ± 0.017	0.35 ± 0.15	2 ± 0.029
CUGGGA	0.446 ± 0.08	2.006 ± 0.014	0.348 ± 0.35	2.03 ± 0.047
GUCUGG	0.433 ± 0.03	2.027 ± 0.0089	0.385 ± 0.25	2.07 ± 0.063
GUCUGC	0.325 ± 0.12	2.025 ± 0.0038	0.295 ± 0.085	2.07 ± 0.053
GUCUUG	0.0388 ± 0.018	1.974 ± 0.0081	0.151 ± 0.32	2.05 ± 0.049
AUGGGA	0.263 ± 0.012	1.925 ± 0.015	0.269 ± 0.049	2.01 ± 0.03
AUGGGG	0.139 ± 0.026	1.841 ± 0.0025	0.258 ± 0.36	2.03 ± 0.062
UUCUAA	0.64 ± 0.015	2.014 ± 0.011	0.66 ± 0.067	2.01 ± 0.026
UUCUAG	0.502 ± 0.03	1.879 ± 0.0029	0.872 ± 0.074	1.99 ± 0.044
GUCAAG	0.249 ± 0.027	1.974 ± 0.0083	0.168 ± 0.075	2.03 ± 0.045
CUGGAA	0.184 ± 0.035	1.9175 ± 0.00021	0.243 ± 0.021	1.97 ± 0.028
CUGGAU	0.302 ± 0.025	1.966 ± 0.018	0.179 ± 0.028	2.02 ± 0.022
CUCGCU	0.424 ± 0.087	2.06 ± 0.044	0.349 ± 0.091	2.02 ± 0.038
CUCGCA	0.235 ± 0.086	2.06 ± 0.013	0.416 ± 0.3	2.062 ± 0.011
UUCGAG	0.119 ± 0.084	1.77 ± 0.033	0.699 ± 0.054	1.97 ± 0.055
GUCGCC	0.306 ± 0.12	2.015 ± 0.012	0.25 ± 0.17	2.02 ± 0.052
GUCGCA	0.512 ± 0.053	2.03 ± 0.021	0.745 ± 0.29	2.01 ± 0.041
AUAGUG	0.15 ± 0.12	1.59 ± 0.023	0.795 ± 0.071	1.93 ± 0.024
AUAGUA	0.293 ± 0.042	1.93 ± 0.027	0.273 ± 0.21	1.97 ± 0.019
GUCAGG	0.338 ± 0.065	1.938 ± 0.015	0.29 ± 0.076	1.974 ± 0.018
UUAUAC	0.677 ± 0.11	1.994 ± 0.012	0.593 ± 0.097	1.99 ± 0.036
UUAUAG	0.192 ± 0.026	1.8081 ± 0.0015	0.396 ± 0.16	1.99 ± 0.034
GUGAGG	0.394 ± 0.093	1.872 ± 0.0053	0.497 ± 0.2	2.015 ± 0.0075
GUGAGA	0.474 ± 0.23	1.973 ± 0.013	0.54 ± 0.081	2.02 ± 0.022

Variant	FACS-Seq fitted mean (log10) [1]	normalized RNA/DNA level without ligand (log10) [2]	FACS-Seq fitted mean (log10) [3]	normalized RNA/DNA level with ligand (log10) [4]
GUGCGU	0.436 ± 0.15	1.9915 ± 0.0017	0.582 ± 0.16	2.008 ± 0.017
GUGCGA	0.238 ± 0.11	1.999 ± 0.014	0.278 ± 0.38	2.02 ± 0.044
GUAUAG	0.256 ± 0.031	1.94 ± 0.0061	0.546 ± 0.096	2.01 ± 0.048
UUCAUG	0.548 ± 0.083	1.86 ± 0.014	0.703 ± 0.25	1.97 ± 0.067
GUCUCG	0.378 ± 0.032	1.997 ± 0.0037	0.197 ± 0.26	2.003 ± 0.013
AUCUGG	0.349 ± 0.012	1.92 ± 0.023	0.27 ± 0.019	2.02 ± 0.042
GUGGCA	0.0901 ± 0.037	2.011 ± 0.0084	0.458 ± 0.2	2.02 ± 0.042
GUGGCC	0.354 ± 0.0094	2.02 ± 0.029	0.72 ± 0.12	2.05 ± 0.023
GUGGGC	0.414 ± 0.04	1.788 ± 0.0052	0.738 ± 0.17	1.98 ± 0.024
GUGGGA	-0.679 ± 0.016	2.018 ± 0.0036	-0.94 ± 0.38	2.03 ± 0.025
UUCAGG	0.449 ± 0.081	1.894 ± 0.0032	0.666 ± 0.2	1.98 ± 0.057
CUAGGU	0.652 ± 0.16	2.024 ± 0.0033	0.694 ± 0.027	2.05 ± 0.028
AUGCGU	0.523 ± 0.16	1.951 ± 0.016	0.63 ± 0.3	1.99 ± 0.031
AUGCGA	0.422 ± 0.019	1.979 ± 0.00081	0.569 ± 0.15	2.01 ± 0.035
AUGCGG	0.0258 ± 0.11	1.939 ± 0.013	0.185 ± 0.22	2.02 ± 0.043
GUAGUG	0.359 ± 0.012	1.856 ± 0.0051	0.637 ± 0.19	1.99 ± 0.054
GUCGAU	0.179 ± 0.051	1.986 ± 0.015	0.225 ± 0.17	2.02 ± 0.026
GUCGAC	0.479 ± 0.017	1.965 ± 0.0058	0.62 ± 0.022	2.025 ± 0.0097
AUCGCU	0.152 ± 0.036	2.026 ± 0.01	0.222 ± 0.45	2.013 ± 0.015
AUCUCG	0.399 ± 0.02	1.976 ± 0.012	0.435 ± 0.35	2.04 ± 0.035
CUAUGU	0.286 ± 0.071	2.01 ± 0.023	0.152 ± 0.23	2.023 ± 0.014
CUCAAU	0.0874 ± 0.13	1.97 ± 0.036	0.0541 ± 0.42	1.971 ± 0.011
AUAUGG	0.12 ± 0.066	1.867 ± 0.0088	0.307 ± 0.19	2 ± 0.034
AUAUGA	0.209 ± 0.013	1.976 ± 0.004	0.342 ± 0.096	2.01 ± 0.034

Variant	FACS-Seq fitted mean (log10) [1]	normalized RNA/DNA level without ligand (log10) [2]	FACS-Seq fitted mean (log10) [3]	normalized RNA/DNA level with ligand (log10) [4]
AUAUGU	0.367 ± 0.12	1.9129 ± 0.00064	0.417 ± 0.46	2.0205 ± 0.0011
GUCGUA	0.666 ± 0.21	2.0187 ± 0.00087	0.497 ± 0.34	2.01 ± 0.025
CUGCCC	0.494 ± 0.029	2.07 ± 0.041	0.403 ± 0.0067	2.06 ± 0.021
AUAUAG	0.309 ± 0.028	1.91 ± 0.021	0.295 ± 0.25	2 ± 0.022
AUAUAU	0.272 ± 0.026	1.947 ± 0.011	0.459 ± 0.073	1.99 ± 0.02
AUAUAC	0.205 ± 0.083	1.994 ± 0.015	0.279 ± 0.065	2 ± 0.041
UUCCAA	0.112 ± 0.15	1.992 ± 0.0026	0.213 ± 0.13	2 ± 0.028
AUCAGU	-0.132 ± 0.056	1.97 ± 0.021	-0.238 ± 0.53	1.996 ± 0.017
AUGAGC	-0.023 ± 0.066	1.998 ± 0.0094	0.192 ± 0.3	2.03 ± 0.028
AUGAGA	0.466 ± 0.025	1.944 ± 0.014	0.537 ± 0.077	2.014 ± 0.016
AUGAGU	0.287 ± 0.0094	1.788 ± 0.017	0.639 ± 0.18	1.97 ± 0.04
AUCUUG	0.284 ± 0.023	1.952 ± 0.0043	0.288 ± 0.16	2.01 ± 0.028
AUCUUA	0.327 ± 0.012	2.042 ± 0.0064	0.337 ± 0.14	2.03 ± 0.043
UUCGGC	0.0747 ± 0.019	2.043 ± 0.013	-0.314 ± 0.0053	2.04 ± 0.054
CUGAGA	-0.345 ± 0.055	1.985 ± 0.0047	-0.472 ± 0.062	1.99 ± 0.035
UUAUUU	0.415 ± 0.024	1.982 ± 0.0056	0.569 ± 0.26	2 ± 0.022
UUAUUG	0.469 ± 0.069	1.82 ± 0.035	0.551 ± 0.16	1.97 ± 0.038
GUAUCA	0.376 ± 0.03	2.045 ± 0.01	0.586 ± 0.01	2.04 ± 0.03
UUCACU	-0.112 ± 0.034	2.059 ± 0.0067	-0.112 ± 0.28	2.041 ± 0.02
GUAUGC	0.271 ± 0.067	1.891 ± 0.015	0.404 ± 0.15	2 ± 0.03
GUGGUG	0.383 ± 0.21	1.92 ± 0.024	0.306 ± 0.32	2 ± 0.043
AUGGUA	0.132 ± 0.069	1.91 ± 0.0083	0.165 ± 0.17	1.98 ± 0.038
AUGGUG	0.433 ± 0.026	1.786 ± 0.011	0.485 ± 0.12	2.01 ± 0.024
UUGCAG	0.439 ± 0.019	1.886 ± 0.0031	0.636 ± 0.033	2 ± 0.042
